Among the data in US20100105141 are Kd values, retold here.

As usually defined, the Kd is a measure of binding affinity in units of concentration. Low readings indicate tighter binding, high ones weaker binding.

Common to all, as to test: SPR
A general note: SPR reads the build-up and loss of mass on a sensor chip optically.

Data set [1] has as its system L7-1C03-A5 (EsR1) L55M,H64A,F67V,S85I,F86M,H100C,R104G,P105F,K108Q,L113A,Q116S,N129H,L134M,S135Q,V137A,H139I,E147L,H151L,L170V,I174L,F177N (synthetic). The conditions noted are these: ka 4.7e4 M-1 s-1, kd 7.8e-3 s-1.
Data set [2] concerns the target L7-1F08-A11 (L7-A11, EsR2) L55M,H64A,F67Y,F86M,H100C,R104G,P105F,K108Q,L113A,Q116S,L134M,S135Q,H139I,F140Y,E147L,H151L,L170V,I174L,F177K (synthetic) (UniProt P04483). The conditions noted are these: ka 7.1e4 M-1 s-1, kd 1.7e-2 s-1.
The target of data set [3] is L7-1G06-B2 L55M,H64A,F67Y,F86M,H100C,R104G,P105F,K108Q,L113A,Q116S,L117M,L134M,S135Q,H139I,F140Y,E147L,H151L,L170V,I174L,F177K (synthetic) (UniProt P04483). To be noted: ka 4.6e4 M-1 s-1, kd 1.9e-2 s-1.
Data set [4] deals with L7-3E03-D1 (EsR4) L55M,H64A,F67Y,F86M,H100C,R104G,P105F,K108Q,L113A,Q116S,N129H,L131M,L134M,S135Q,V137A,H139I,F140Y,E147L,H151L,L170V,I174L,F177K (synthetic). To be noted: ka 5.5e4 M-1 s-1, kd 1.1e-2 s-1.
For data set [5], the target named is wt TetR(B) (Tn10, Gly inserted after Met1) (Escherichia coli) (UniProt P04483). To be noted: ka 3.3e5 M-1 s-1, kd 3.0e-3 s-1; operator sequence used on chip not stated.

Take tet operator (Biacore): the equilibrium dissociation constant (Kd) in data set [1] turned out to be 150 nM; in data set [2], 250 nM; in data set [3] it was 430 nM; in data set [4] it was 200 nM; in data set [5], 9 nM.
